Measured values: the RNAGym collection of RNA variant scans (doi:10.1073/pnas.2313332121)

B1: TPR t1 (parent)
chain: GACCAAUCUGCCCUCAGAGCUCGAGAACAUCUUCGGAUGCAGAGGAGGCAGGCUUCGGUGGCGCGAUAGCGCCAACGUCCUCAACCUCCAAUGCAUCCCACCACAUGAUGAUGCCUGAAGAGCCUUGGUUUUUUG

Variants of: B1
Assay: polymerase ribozyme fitness, log enrichment relative to wild type (log ratio); higher = more active; in vitro selection for triplet polymerase activity
Outline: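 Fitness measures genotype enrichment against wild-type enrichment on a logarithmic scale, with inverse-variance-weighted averaging of replicates. The logarithm is base 2, and genotypes were kept only with ≥10 input reads and ≥1 read per output in Illumina sequencing. The sequenced libraries came from one triplicate in vitro selection round, including frozen incubation at −7 °C, of PCR-built, transcribed mutant libraries of each subunit of a heterodimeric triplet polymerase ribozyme.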

Question: For A50G G77U C86G, which “polymerase ribozyme fitness (log ratio)” value is on record?
Answer: -1.1

Question: Which “polymerase ribozyme fitness (log ratio)” value does the source give for G52C C115A A118U U131A here?
Answer: -2.68

Question: For G52U C76G C97U, which “polymerase ribozyme fitness (log ratio)” value is on record?
Answer: -2.35

Question: For C53G U126A, which “polymerase ribozyme fitness (log ratio)” value is on record?
Answer: -2.29

Question: For G52C G69U C99U, which “polymerase ribozyme fitness (log ratio)” value is on record?
Answer: -1.34

Question: Which “polymerase ribozyme fitness (log ratio)” value does the source give for C53G U78C C80U A91G U92C C124A here?
Answer: -5.02

Question: Which “polymerase ribozyme fitness (log ratio)” value does the source give for G52U U125A here?
Answer: -0.984

Question: For G52U U125G, which “polymerase ribozyme fitness (log ratio)” value is on record?
Answer: -1.12

Question: For A50U U59G U112G, which “polymerase ribozyme fitness (log ratio)” value is on record?
Answer: -0.842

Question: For G51U G71A A90G C98G C114A C123U, which “polymerase ribozyme fitness (log ratio)” value is on record?
Answer: -6.6

Question: For G52U G61C C123A, which “polymerase ribozyme fitness (log ratio)” value is on record?
Answer: -0.217

Question: For G51A C82U C124U, which “polymerase ribozyme fitness (log ratio)” value is on record?
Answer: 0.555

Question: For C53U C70G, which “polymerase ribozyme fitness (log ratio)” value is on record?
Answer: -4.36

Question: Which “polymerase ribozyme fitness (log ratio)” value does the source give for C53U C70A here?
Answer: -1.49

Question: Which “polymerase ribozyme fitness (log ratio)” value does the source give for G52U C53A C73U here?
Answer: -1.08

Question: Which “polymerase ribozyme fitness (log ratio)” value does the source give for G52C C73G C82A here?
Answer: -1.97

Question: For A50G G63A, which “polymerase ribozyme fitness (log ratio)” value is on record?
Answer: -0.747

Question: For G51C C80G G135U, which “polymerase ribozyme fitness (log ratio)” value is on record?
Answer: -1.27

Question: Which “polymerase ribozyme fitness (log ratio)” value does the source give for G51U G61A C64U U125G here?
Answer: -6.13

Question: For G52A G69U G71U C102A, which “polymerase ribozyme fitness (log ratio)” value is on record?
Answer: -4.53

Question: For G52U, which “polymerase ribozyme fitness (log ratio)” value is on record?
Answer: -0.82

Question: Which “polymerase ribozyme fitness (log ratio)” value does the source give for G52C here?
Answer: -0.632

Question: Which “polymerase ribozyme fitness (log ratio)” value does the source give for G52A here?
Answer: -0.286

Question: Which “polymerase ribozyme fitness (log ratio)” value does the source give for G52C G71U U132A here?
Answer: -0.43

Question: For G52C U129C, which “polymerase ribozyme fitness (log ratio)” value is on record?
Answer: -1.64

Question: Which “polymerase ribozyme fitness (log ratio)” value does the source give for A50U G58C G71C C104A C124A here?
Answer: -3.2

Question: With A50G G63U U130A as the variant, how does the “polymerase ribozyme fitness (log ratio)” value read?
Answer: -2.47

Question: For A50G C88A C104U G113U U129C, which “polymerase ribozyme fitness (log ratio)” value is on record?
Answer: -4.06

Question: Which “polymerase ribozyme fitness (log ratio)” value does the source give for C53U C73G here?
Answer: -2.05

Question: With A50U C79G G110A G122C as the variant, how does the “polymerase ribozyme fitness (log ratio)” value read?
Answer: -6.04

Question: With G51A A74G A83G G120U C123G G128U as the variant, how does the “polymerase ribozyme fitness (log ratio)” value read?
Answer: -1.97

Question: Which “polymerase ribozyme fitness (log ratio)” value does the source give for G52U U106A here?
Answer: -0.189

Question: Which “polymerase ribozyme fitness (log ratio)” value does the source give for G52U C72G C79A G110A C123A here?
Answer: -3.69

Question: For A50G U54C G63U C88U U130G, which “polymerase ribozyme fitness (log ratio)” value is on record?
Answer: -2.9

Question: With C53A G71C C85A G117A U125G as the variant, how does the “polymerase ribozyme fitness (log ratio)” value read?
Answer: -5.65

Question: With G52C G113A C124U as the variant, how does the “polymerase ribozyme fitness (log ratio)” value read?
Answer: -1.69

Question: Which “polymerase ribozyme fitness (log ratio)” value does the source give for G52A G113A here?
Answer: -1.37

Question: For G52C U125G, which “polymerase ribozyme fitness (log ratio)” value is on record?
Answer: -1.59

Question: Which “polymerase ribozyme fitness (log ratio)” value does the source give for G51A C53G here?
Answer: -2.12

Question: Which “polymerase ribozyme fitness (log ratio)” value does the source give for G51U U55G C102U here?
Answer: -6.73

Question: Which “polymerase ribozyme fitness (log ratio)” value does the source give for G52C C53G G120U here?
Answer: -2.13

Question: For G52C C82A U112G, which “polymerase ribozyme fitness (log ratio)” value is on record?
Answer: -1.29

Question: With G52U G61A as the variant, how does the “polymerase ribozyme fitness (log ratio)” value read?
Answer: -1.14

Question: With G52U G61U as the variant, how does the “polymerase ribozyme fitness (log ratio)” value read?
Answer: -0.708

Question: For G52A G57C, which “polymerase ribozyme fitness (log ratio)” value is on record?
Answer: -0.388

Question: Which “polymerase ribozyme fitness (log ratio)” value does the source give for G51A C56U A84G A95G U96A here?
Answer: -5.06

Question: Which “polymerase ribozyme fitness (log ratio)” value does the source give for C53G C104U A111G here?
Answer: 0.815

Question: Which “polymerase ribozyme fitness (log ratio)” value does the source give for G51C G63A U78C A111C here?
Answer: -6.17

Question: Which “polymerase ribozyme fitness (log ratio)” value does the source give for C53A U78C C82U C102U here?
Answer: -0.997

Question: For C53A G69C, which “polymerase ribozyme fitness (log ratio)” value is on record?
Answer: -1.38

Question: Which “polymerase ribozyme fitness (log ratio)” value does the source give for G52A C64A C101A C115A here?
Answer: -6.42

Question: For G51A A83C, which “polymerase ribozyme fitness (log ratio)” value is on record?
Answer: -3.73

Question: With G52A C70U G77A U78G C79U G117U as the variant, how does the “polymerase ribozyme fitness (log ratio)” value read?
Answer: -3.69

Question: Which “polymerase ribozyme fitness (log ratio)” value does the source give for G52U G117U U133A here?
Answer: -3.76

Question: With G52U C64U U116C as the variant, how does the “polymerase ribozyme fitness (log ratio)” value read?
Answer: -2.49

Question: With G51A A95G as the variant, how does the “polymerase ribozyme fitness (log ratio)” value read?
Answer: -2.62

Question: With G52C C124U as the variant, how does the “polymerase ribozyme fitness (log ratio)” value read?
Answer: 1.26

Question: With A50G C79A U96C as the variant, how does the “polymerase ribozyme fitness (log ratio)” value read?
Answer: -2.32

Question: With G52U C56A C99U as the variant, how does the “polymerase ribozyme fitness (log ratio)” value read?
Answer: -4.58

Question: Which “polymerase ribozyme fitness (log ratio)” value does the source give for G52C G60U here?
Answer: -1.44

Question: With G51U G110A U132A as the variant, how does the “polymerase ribozyme fitness (log ratio)” value read?
Answer: -5.7

Question: For G51U C72U, which “polymerase ribozyme fitness (log ratio)” value is on record?
Answer: -3.99

Question: Which “polymerase ribozyme fitness (log ratio)” value does the source give for A50U C115A here?
Answer: -0.803

Question: With A50U G52C G58C C72U C88U as the variant, how does the “polymerase ribozyme fitness (log ratio)” value read?
Answer: -4.47

Question: Which “polymerase ribozyme fitness (log ratio)” value does the source give for C53A G60A C94A G120A here?
Answer: 0.047

Question: Which “polymerase ribozyme fitness (log ratio)” value does the source give for C53U C72U C79A C85U C88U here?
Answer: -2.53

Question: For C53A G71A, which “polymerase ribozyme fitness (log ratio)” value is on record?
Answer: -0.89

Question: With A50U A95C as the variant, how does the “polymerase ribozyme fitness (log ratio)” value read?
Answer: -1.9

Question: For A50U U78G A90U, which “polymerase ribozyme fitness (log ratio)” value is on record?
Answer: -3.54

Question: For A50U C73A C80G C85A A90G G127U, which “polymerase ribozyme fitness (log ratio)” value is on record?
Answer: -2.82

Question: For G51U G127A, which “polymerase ribozyme fitness (log ratio)” value is on record?
Answer: -4.52

Question: With G52A C70U C86U C94A A100C C101U C114G as the variant, how does the “polymerase ribozyme fitness (log ratio)” value read?
Answer: -5.67

Question: For G52U G63A C101G C114G, which “polymerase ribozyme fitness (log ratio)” value is on record?
Answer: -6.25

Question: For C53A U59C A105U, which “polymerase ribozyme fitness (log ratio)” value is on record?
Answer: -2.61

Question: With C53U C80A as the variant, how does the “polymerase ribozyme fitness (log ratio)” value read?
Answer: -4.94

Question: With G52U U81A as the variant, how does the “polymerase ribozyme fitness (log ratio)” value read?
Answer: -2.79

Question: With G51A C79G C80G A84C C124G G128C as the variant, how does the “polymerase ribozyme fitness (log ratio)” value read?
Answer: -7.76

Question: Which “polymerase ribozyme fitness (log ratio)” value does the source give for G51U U87A G107U C115A A121U here?
Answer: -7.71

Question: For C53A G117A, which “polymerase ribozyme fitness (log ratio)” value is on record?
Answer: 0.856

Question: With C53G G57C G63C as the variant, how does the “polymerase ribozyme fitness (log ratio)” value read?
Answer: -0.44

Question: Which “polymerase ribozyme fitness (log ratio)” value does the source give for A50U A74G here?
Answer: -1.27

Question: For G52A G69C C85A G122A U133A, which “polymerase ribozyme fitness (log ratio)” value is on record?
Answer: -4.36

Question: Which “polymerase ribozyme fitness (log ratio)” value does the source give for G51A U131A here?
Answer: -2.2

Question: Which “polymerase ribozyme fitness (log ratio)” value does the source give for G52C A83G here?
Answer: -1.31
